Consider 1 protein from PMC3328597.

The target of data set [1] is His161 (UniProt position 161, …). Description: NMR. Particulars: 50 mM NaCl; 20 mM Tris acetate; free Thr171-phosphorylated peptide, no RNA.
The target in data set [2] is His168 (UniProt position 168, …). Description: NMR. Particulars: 50 mM NaCl; 20 mM Tris acetate; free Thr171-phosphorylated peptide, no RNA.

The term pKa denotes the pH at which an ionisable group is half protonated. A lower pKa goes with a stronger acid or weaker base. Turning to HLRQPGIHPKTPNKFKKYSR, the pKa in data set [1] is on record as 6.4; in data set [2], 5.6.
